{
  "source": "patent US20040121957A1",
  "about": "(CASE WESTERN RESERVE UNIVERSITY, published 2004)",
  "binders": {"B1": {"name": "synthetic NEG2 peptide (22 amino acid peptide corresponding to CFTR amino acids 817-838) (peptide)", "peptide": "GLEISEEINEEDLKECFFDDME"}},
  "biological_target": "wild type CFTR (cystic fibrosis transmembrane conductance regulator) chloride channel (human, UniProt P13569 1-1480, phosphorylated by PKA in the assay (50 units/ml PKA and 2 mM ATP in the cis solution); sites not listed for the assay)",
  "sequence (P13569 whole entry)": "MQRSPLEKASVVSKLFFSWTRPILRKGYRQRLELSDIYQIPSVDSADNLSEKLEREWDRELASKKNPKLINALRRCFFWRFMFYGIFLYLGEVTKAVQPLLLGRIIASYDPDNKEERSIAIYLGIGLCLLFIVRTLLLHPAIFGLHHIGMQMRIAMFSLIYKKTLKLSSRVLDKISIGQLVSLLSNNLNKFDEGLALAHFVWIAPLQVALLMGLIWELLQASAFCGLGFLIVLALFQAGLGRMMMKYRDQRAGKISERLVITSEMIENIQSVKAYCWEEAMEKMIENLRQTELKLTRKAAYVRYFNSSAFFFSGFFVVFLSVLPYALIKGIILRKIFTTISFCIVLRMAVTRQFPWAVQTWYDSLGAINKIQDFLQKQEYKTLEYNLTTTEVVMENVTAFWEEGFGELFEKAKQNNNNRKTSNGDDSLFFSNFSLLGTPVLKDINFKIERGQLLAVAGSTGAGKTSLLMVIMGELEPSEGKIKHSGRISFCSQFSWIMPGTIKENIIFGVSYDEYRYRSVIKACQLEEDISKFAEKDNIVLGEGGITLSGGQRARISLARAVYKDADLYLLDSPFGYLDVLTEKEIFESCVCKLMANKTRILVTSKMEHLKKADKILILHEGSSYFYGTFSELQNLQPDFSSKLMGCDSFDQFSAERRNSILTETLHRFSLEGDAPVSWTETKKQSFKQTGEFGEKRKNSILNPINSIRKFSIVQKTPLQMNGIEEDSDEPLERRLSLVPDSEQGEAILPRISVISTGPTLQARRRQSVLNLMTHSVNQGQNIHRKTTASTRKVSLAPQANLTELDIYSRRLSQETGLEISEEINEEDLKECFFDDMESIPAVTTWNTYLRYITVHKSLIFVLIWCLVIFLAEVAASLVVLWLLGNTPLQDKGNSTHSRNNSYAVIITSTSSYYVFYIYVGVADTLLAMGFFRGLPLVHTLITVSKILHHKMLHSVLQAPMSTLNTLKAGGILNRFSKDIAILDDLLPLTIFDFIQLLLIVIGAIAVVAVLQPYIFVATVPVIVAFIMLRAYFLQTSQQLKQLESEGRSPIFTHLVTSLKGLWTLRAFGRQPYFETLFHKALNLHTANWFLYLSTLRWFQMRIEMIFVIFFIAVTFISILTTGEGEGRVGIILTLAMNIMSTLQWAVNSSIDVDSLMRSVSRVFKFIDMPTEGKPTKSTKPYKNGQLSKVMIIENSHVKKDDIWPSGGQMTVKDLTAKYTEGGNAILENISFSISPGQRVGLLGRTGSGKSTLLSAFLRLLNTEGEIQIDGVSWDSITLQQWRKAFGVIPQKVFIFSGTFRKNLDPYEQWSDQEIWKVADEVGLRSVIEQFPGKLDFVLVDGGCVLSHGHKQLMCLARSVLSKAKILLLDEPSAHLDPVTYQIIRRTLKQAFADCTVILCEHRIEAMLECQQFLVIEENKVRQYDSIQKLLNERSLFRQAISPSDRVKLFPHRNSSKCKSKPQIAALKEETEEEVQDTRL",
  "experiment": "cell-based or functional assay",
  "data": [
    {"binder": "B1", "values": [
      {"measurement": "open probability of single wt-CFTR channel in planar lipid bilayer", "value": "> 2", "unit": "fold"}
    ]}
  ]
}
